Experimental data published in patent US20200369755A1 (PROTHENA BIOSCIENCES, published 2020).
Where no end group is shown, it is not given here.

Key:
Experiment in all cases: peptide ELISA, biotinylated peptide on streptavidin plate; background-subtracted absorbance; positive from 0.2
[1] = biological target: T1, 64-78 (also: biotinylated, site not given here)
T1 construct: also called tau peptide 64-78 (4R0N numbering)
T1 peptide: VTQARMVSKSKDGTG
Description: (§1) Additional peptides were used to model potential post-translational modifications of the C- and N-terminal ends of the protein.
(§2) Biotinylated peptides were bound to separate wells of a streptavidin-coated ELISA plate. The plate was blocked and treated with murine 3D6, followed by incubation with a horseradish peroxidase-conjugated anti-mouse antibody. After thorough washing, OPD was applied to the plate and allowed to develop. The plate was read at 450 nm absorbance. Background subtraction was performed with absorbance values from wells containing no primary antibody, and a threshold for positive binding was set to 0.2 absorbance units. […] (FIG. 1)

[2] = biological target: T2, 19-33 (also: biotinylated, site not given here)
T2 construct: also called tau peptide 19-33 (4R0N numbering)
T2 peptide: GLGDRKDQGGYTMHQ
Description: as §1, §2

[3] = biological target: T3, 37-51 (also: biotinylated, site not given here)
T3 construct: also called tau peptide 37-51 (4R0N numbering)
T3 peptide: GDTDAGLKAEEAGIG
Description: as §1, §2

[4] = biological target: T4, 352-366 (also: biotinylated, site not given here)
T4 construct: also called tau peptide 352-366 (4R0N numbering)
T4 peptide: NVSSTGSIDMVDSPQ
Description: as §1, §2

[5] = biological target: T5, 298-312 (also: biotinylated, site not given here)
T5 construct: also called tau peptide 298-312 (4R0N numbering)
T5 peptide: SLDNITHVPGGGNKK
Description: as §1, §2

[6] = biological target: T6, 271-285 (also: biotinylated, site not given here)
T6 peptide: HHKPGGGQVEVKSEK
Description: as §1, §2

[7] = biological target: T7, 217-231 (also: biotinylated, site not given here)
T7 construct: also called tau peptide 217-231 (4R0N numbering)
T7 peptide: VQIINKKLDLSNVQS
Description: as §1, §2

[8] = biological target: T8, 91-105 (also: biotinylated, site not given here)
T8 construct: also called tau peptide 91-105 (4R0N numbering)
T8 peptide: TKIATPRGAAPPGQK
Description: as §1, §2

[9] = biological target: T9, 369-383 (free C-term) (also: biotinylated, site not given here)
T9 peptide: TLADEVSASLAKQGL-OH
Description: as §1, §2

[10] = biological target: T10, 369-383 (amidated C-term) (also: biotinylated, site not given here)
T10 peptide: TLADEVSASLAKQGL-NH2
Description: as §1, §2

[11] = biological target: T11, 325-339 (also: biotinylated, site not given here)
T11 construct: also called tau peptide 325-339 (4R0N numbering)
T11 peptide: KAKTDHGAEIVYKSP
Description: as §1, §2

[12] = biological target: T12, 280-294 (also: biotinylated, site not given here)
T12 construct: also called tau peptide 280-294 (4R0N numbering)
T12 peptide: EVKSEKLDFKDRVQS
Description: as §1, §2

[13] = biological target: T13, 100-114 (also: biotinylated (site not given here))
T13 construct: also called tau peptide 100-114 (4R0N numbering)
T13 peptide: APPGQKGQANATRIP
Description: as §1, §2

[14] = biological target: T14, 154-168 (biotinylated)
T14 construct: also called tau peptide 154-168 (4R0N numbering)
Description: as §1, §2

[15] = biological target: T15, 334-348 (also: biotinylated, site not given here)
T15 construct: also called tau peptide 334-348 (4R0N numbering)
T15 peptide: IVYKSPVVSGDTSPR
Description: as §1, §2

[16] = biological target: T16, 55-69 (also: biotinylated, site not given here)
T16 construct: also called tau peptide 55-69 (4R0N numbering)
T16 peptide: SLEDEAAGHVTQARM
Description: as §1, §2

[17] = biological target: T17, 361-375 (also: biotinylated, site not given here)
T17 peptide: MVDSPQLATLADEVS
Description: as §1, §2

[18] = biological target: T18, 109-123 (also: biotinylated, site not given here)
T18 construct: also called tau peptide 109-123 (4R0N numbering)
T18 peptide: NATRIPAKTPPAPKT
Description: as §1, §2

[19] = biological target: T19, 118-132 (also: biotinylated, site not given here)
T19 peptide: PPAPKTPPSSGEPPK
Description: as §1, §2

Measured: binding result

B1: murine 3D6 monoclonal antibody (antibody, IgG1, V domains shown)
VH: EVQLQQSGADLVRPGALVKLSCKASGFNIKDYYLHWVRQRPEQGLEWIGWIDPENGDTVYDPKFQGKATITADTSSNTAYLQLGSLTSEDTAVYFCSTLDFWGQGTTLTVSS
VL: not shown
notes: Hybridoma-derived mouse antibody; also called m3D6; mouse 3D6
no binding: all assays above
